Measured values reported in FireProtDB (doi:10.1021/bi012113g).
Several values for one entry are separate records, joined by “and”; a condition that tells them apart may be missing. Identical values can stand only once.

Details: Vibrio harveyi; pH 7; 25 °C; Urea; CD; NaH2PO4/K2HPO4 50 mM; transition: 4; whole UniProt chain shown

B1: Alkanal monooxygenase alpha chain wild type, P07740 (protein)
chain: MKFGNFLLTYQPPELSQTEVMKRLVNLGKASEGCGFDTVWLLEHHFTEFGLLGNPYVAAAHLLGATETLNVGTAAIVLPTAHPVRQAEDVNLLDQMSKGRFRFGICRGLYDKDFRVFGTDMDNSRALMDCWYDLMKEGFNEGYIAADNEHIKFPKIQLNPSAYTQGGAPVYVVAESASTTEWAAERGLPMILSWIINTHEKKAQLDLYNEVATEHGYDVTKIDHCLSYITSVDHDSNRAKDICRNFLGHWYDSYVNATKIFDDSDQTKGYDFNKGQWRDFVLKGHKDTNRRIDYSYEINPVGTPEECIAIIQQDIDATGIDNICCGFEANGSEEEIIASMKLFQSDVMPYLKEKQ
- unfolding free energy: 4.5 kcal/mol and 2.8 kcal/mol
